Measurements taken from the DeepSol protein solubility set.

Test: soluble on expression in E. coli; label from the status in PepcDB or PDB records

Row | Sequence | soluble on expression in E. coli
1 | MFIPVIMAGGSGSRLWPLSRSAFPKQFLSLDSSSQHTMLQATIERLQGLPIAEPIVISNEDHRFIVAEQIRRYGKKSRIILEPAGRNTAPAIALAAFTAIEQEDDPVLLVLAADHFVKNKSAFQAAISQAAQQAEAGKLATFGIVPTTPETGYGYIHRGEEVTQGTYEINSFVEKPQLNIAEQYLASGEYYWNSGCFMFKASVFLNELKQHSPEIYRQCELAMQGLSHDYDFIRVGVEEFLKCPDDSIDYAVMEHTKLGVVVSMDAGWSDVGSWSALWEVSDKDADGNVCQGDAILSGTSNCYIYAPNKLVAAVGLKDIVVVETKDAVLVADKNQVQEVKKIVEHLKAENRAEYREHRERYRPWGKSDAIDKGERYKVNRITVEPGKKQSLQMHYHRAEHWVVVSGTAKVTCEGNVKVITENQSLYIPIGTNHMIENPGKIPLELIEIQSGSYLNEDDVVRFEDK | not soluble
2 | MPINGIKIKNSSGEEVYVLKEKGSVVNFGREKKVCHITFDPHAARVSRIHASIEWGDEGLFFTDKSKEGTEINGTRLKQSSQELHEGVYQLAIGGISMTLEVDGDELEETVIDSPQPDESSTVPETVYEESRYSNSSIKEMPAVEVTDDE | not soluble
3 | MGSDKIHHHHHHMTYPVVLVNVSRNTNAISFPMGLSVVANALLHHDITPQIIDLIPVMPDQRIDYFLRTMPKEPAIYGFSMMIGNFHLDHAEHYARLIKEHSPDSIVVYGGSLPSSVPELLVENCECDFVIHGEGEVVFPAFVKALREGESFPEGPGIFYKGADGQVVGTKAKRMRRLDHLSRQNYSLFDMDFYSGYFKEVGLSWEIMASRGCKAHCSFCYKFMGDGIGLREVGEVLDEIQYIMENYGITKFYFVDENFMQIKKYFYSFLEEKKNRGLNFTFIASSRIDEIDEERISIAKEHGLTALTTGVESVNQATLNAIDKRIDIEDAERAVKLLRQYGIRPHVNLIIGFEWESEDDYKAMLEFIERNDLRGTVKLSYLTPLPATRLYEDAKSRNKLGKPEFEYVRTLGNLYWELMVNMTNMPDELLKHYYALISDVGKETRALPVTPAYRQNLNDDLVMYKTVAAPSPPPAHAAWSLP | not soluble
4 | SNGEEEFFDAVTGFDSDNSSGEFSEANQKVTGMIDLDTSKNNRIGKTGERPSQENGIQKHRTSLPAPMFSRSDFSVWTILKKCVGLELSKITMPIAFNEPLSFLQRITEYMEHVYLIHRASCQPQPLERMQSVAAFAVSAVASQWERTGKPFNPLLGETYELIREDLGFRFISEQVSHHPPISAFHSEGLNHDFLFHGSIYPKLKFWGKSVEAEPRGTITLELLKHNEAYTWTNPTCCVHNVIIGKLWIEQYGTVEILNHRTGHKCVLHFKPCGLFGKELHKVEGHIQDKNKKKLFMIYGKWTECLWGIDPVSYESFKKQERRGDHLRKAKLDEDSGKADSDVADDVPVAQETVQVIPGSKLLWRINTRPPNSAQMYNFTSFTVSLNELETGMEKTLPPTDCRLRPDIRGMENGNMDLASQEKERLEEKQREARRERAKEEAEWQTRWFYPGNNPYTGTPDWLYAGDYFERNFSDCPDIY | soluble
5 | MMAYSDTTMMSDDIDWLRSHRGVCKVDLYNPEGQQDQDRKVICFVDVSTLNVEDKDYKDAASSSSEGNLNLGSLEEKEIIVIKDTEKKDQSKTEGSVCLFKQAPSDPVSVLNWLLSDLQKYALGFQHALSPSTSTCKHKVGDTEGEYHRASSENCYSVYADQVNIDYLMNRPQNLRLEMTAAKNTNNNQSPSAPPAKPPSTQRAVISPDGECSIDDLSFYVNRLSSLVIQMAHKEIKEKLEGKSKCLHHSICPSPGNKERISPRTPASKIASEMAYEAVELTAAEMRGTGEESREGGQKSFLYSELSNKSKSGDKQMSQRESKEFADSISKGLMVYANQVASDMMVSLMKTLKVHSSGKPIPASVVLKRVLLRHTKEIVSDLIDSCMKNLHNITGVLMTDSDFVSAVKRNLFNQWKQNATDIMEAMLKRLVSALIGEEKETKSQSLSYASLKAGSHDPKCRNQSLEFSTMKAEMKERDKGKMKSDPCKSLTSAEKVGEHILKEGLTIWNQKQGNSCKVATKACSNKDEKGEKINASTDSLAKDLIVSALKLIQYHLTQQTKGKDTCEEDCPGSTMGYMAQSTQYEKCGGGQSAKALSVKQLESHRAPGPSTCQKENQHLDSQKMDMSNIVLMLIQKLLNENPFKCEDPCEGENKCSEPRASKAASMSNRSDKAEEQCQEHQELDCTSGMKQANGQFIDKLVESVMKLCLIMAKYSNDGAALAELEEQAASANKPNFRGTRCIHSGAMPQNYQDSLGHEVIVNNQCSTNSLQKQLQAVLQWIAASQFNVPMLYFMGDKDGQLEKLPQVSAKAAEKGYSVGGLLQEVMKFAKERQPDEAVGKVARKQLLDWLLANL | not soluble
6 | RALEDEDMRKVFSRLSKSSTIPSDLRRTKELFILMFLLRGLPFVDLAYLRKSDLRGNVITYRRRKTGRSLSVTLTPESMLLLEKHISRDLSSPYLFPILHSIEGSQEAYREYQLALRSFNQHLELLGQWLGLESKLSSYTARHTWATTAYYCEIHPGIISEAMGHSSITVTETYLKPFRNRKIDEAN | not soluble
7 | MSLTTHGKPVLVATDLSARTDRAVDRATQLAGEWGVRLIVLHAIEPDSRLHARPELANQAMREVLADPEADVDILPALDLAPTAIVEAAKSADCGLIVTGVARFNHVGDYFIGTAVDHVVRHATVPVLVVKQRPHNAYRTIVVATDYSSCSRLALLTAAEFFPDAAIHLVHAYHVPYEAWLRSDEVREDVTREAQRELDAFVLDPAIPANVRQRISAKLVYGETHTVLSSTAYELGADLLVLGTHGSGGYFAAVMGRMAESLLRCADIDTLVVREIGSTGSEGHHHHHH | soluble
8 | MAHRNTYEAVLHKIQVGSPEDGNGAIRILQLSDLHLEKLSISPDDLYEKLRGEPIDFIALTGDFLDREASIPKLGPYLTALKKLQPAYGMYAVFGNHDYVLQGEPFERLKATLEEHGCIVLQNEMKTITVHGQTVNIIGIDDFYTRRSNMKKAYAGVKDGINIVLTHDPDIVPHMGAYHFDYLLSGHFHGGQIHWPKPYHLAKMSKTLTKRNMIKGYHEWEGKPFYINEGLGQTGVNIRVGSKPEVTLHLLSLPSVAQSETVKAVLEHHHHHH | soluble
9 | MSLSKLPLLPTTVIGSYPRPKWLRESIRLHKAGKMSNEDLQEAFNDAVIAVFQDHYKAGVDVPTDGEVRRDEMVEFFAERIKGFKFYGPVRVWGTAYYRKPSVVSKIEYREPMLVDEFTFAKSVSYTDNLKITITGPYTIAEWSYNEYYRNKKDLVFDLAKAINQEIKNLVEAGAKIIQIDEPALHTRKEDVSWGVEAVNEAVKGVNAKLVMHICYGDYSFVAPYFNEIKVDQINFALKIYNYKPLELLKKYGFDKELGAGVVDVHNRKVETSEEVANDIRKILEYFPPEKVWINPDCGLKLLSRKIAYQKLVSMVEGTKVVREELKRKGYSVDEGHHHHHH | not soluble
10 | SLSESFPLLEKYRIGKVIGDGNFAVVKECVDRYTGKEFALKIIDKAKCCGKEHLIENEVSILRRVKHPNIIMLVEEMETATDLFLVMELVKGGDLFDAITSSTKYTERDGSAMVYNLANALRYLHSLSIVHRDIKPENLLVCEYPDGTKSLKLGDFGLATVVEGPLYTVCGTPTYVAPEIIAETGYGLKVDVWAAGVITYILLCGFPPFRSENNLQEDLFDQILAGKLEFPAPYWDNITDSAKELISQMLQVNVEARCTAGEILSHPWVSDDASQENNMQAEVTGKLKQHFNNALPKQNSTTTGVSVIMNTALDK | soluble
11 | MAQIVVIGAGLGGLPAAYELRHYLGKAHQVILISEFPQFTFVPGLVQVGLGHIPLDHMQLNVPMLAKRHGFKWVQGKVQKIDPLQKRIYTHETLNYDYLIIASGAELANDLVPGLGIYTHSICTPSHVLEARTAWETFCQQPGDLVVGAAPGTGCFGPAYEYVLLAEADLRRRGIRDQVKITYITPEPYIGHLGIANMAHSQTLTEALMNKRGIATLTNAQIVNISSDHIFLADGQSFGFAYSMILPAFRGAKFVKASGLGNERGFLPVLPTMRHRDYPEIYGVGVSVHLGQINDTQVSIGTPKSGQMTEAMAMVAAHNIAVELGSIAKPLQVPTLEALCFAEYGDTGIAYIAAPVLPDRLTGKRRYSYAIKGIWVNWAKAAFEKYFLAKMRLGVGLPWFEKLGLRLLFGLSMSRPAMAEDIVQPVNVLEHHHHHH | soluble
12 | MAKASSSFVCQNCGAAFNRWQGKCEACGEWNTLVEEAGDNAVPVSIRAKRRGRTFKLESLAGKSNDAPRLPSGMAELDRVTGGGFVRGSVLLVGGDPGIGKSTLLTQATSLMAKAGHRTVYISGEEAIAQVRLRAERLGLASAPVELAAETSVEDIVATLSEGATPKLIVIDSIQTMWTDTVESAPGTVTQVRASAQALIRFAKKTGAAIILVGHVTKDGQIAGPRVVEHMVDAVLSFEGEGSQQFRILRSVKNRFGPTDEIGVFEMTGLGLREVSNPSELFLSERDLGSPGTAVFAGIEGTRPVLVELQALVAPSTLGTPRRAVVGWDSARLSMVLAVLEAHCGVKLSGYDVYFNVAGGLRINEPAADLAAAAALVSSLANAPLPTDAVYFGEISLSGAVRPVAQTPARLKEAAKLGFARAVLPEQTRGEAPADAGLALQSVGGLSSLVADIAARGTRRGDDDGAPRTKAASNATPARFRRQEALEHHHHHH | soluble
13 | MGHHHHHHSHMPADRSIWQESCPVSFSALKKWIFLPNSTKIKEKRSSFPVRGPLTFDGWYPRDHKPSAPPTNEEERRAAAVKYGLRPEDYQSMDKDDVIKFAGDYPDLGVITYDHKDPYEAWTDRQNRRNWGELVPIDMMRYRGDRLTFTGLEAEDYTTWNSIVMCLRVLVPMALLAWYFTNEHPNALRWKNPAMPKQYSYDFYRAYPFDDPRKYPIVNYSFDLE | not soluble
14 | MSLELPFSNQSIIPAAHNQKDMEKILELDLTYMVMLETHVAQLKALVKYAQAGGKKVLLHADLVNGLKNDDYAIDFLCTEICPDGIISTRGNAIMKAKQHKMLAIQRLFMIDSSAYNKGVALIQKVQPDCIELLPGIIPEQVQKMTQKLHIPVIAGGLIETSEQVNQVIASGAIAVTTSNKHLWEGHHHHHH | soluble
15 | MVKNGRDPPERNFYCTEKEETAPPLMNIFDDFKSQIEREIMTIFLKTAYESLLSIAISTEIIVPEDETRSLEKEVIKLMKLMKLMNLLEPLGNRVSRLMGLVRNAEEHRERIVKRNQESDVREIFKIAASRTKTRFHKALQKESSSSSMKWGFTEAKDEVLSLGIRLTHALIKLTLLRVKKNDREKQLLLRDWIFDESYEKQSALMYLLDYLLYKAEEFAASVVVEESGNDHHRQHILEEDRIGDDILTRISEAIFILQLLAMNLSRNVLTERDLIATNDQLLRCVRDVKFVESTIVVLMKGRSLKLKHKGKQSLLMKERTETIFWAKVNAELNKCWGESFWKYVEAARHLEAVVSSQQIVYTLCKLFVFGFES | not soluble
16 | MSLGIRSGNNNGGFTNLTSQAPQTTQMFQSQSQLQPQPQPQPQQQQQHLQFNGSSDASSLRFGNSLSNTVNANNYSSNIGNNSINNNNIKNGTNNISQHGQGNNPSWVNNPKKRFTPHTVIRRKTTKQNSSSDINQNDDSSSMNATMRNFSKQNQDSKHNERNKSAANNDISSLLSNFNDIPPSVTLQDWQREDEFGSIPSLTTQFVTDKYTAKKTNRSAYDSKNTPNVFDKDSYVRIANIEQNHLDNNYNTAETNNKVHETSSKSSSLSAIIVFGYPESISNELIEHFSHFGHIMEDFQVLRLGRGINPNTFRIFHNHDTGCDENDSTVNKSITLKGRNNESNNKKYPIFTGESWVKLTYNSPSSALRALQENGTIFRGSLIGCIPYSKNAVEQLAGCKIDNVDDIGEFNVSMYQNSSTSSTSNTPSPPNVIITDGTLLREDDNTPAGHAGNPTNISSPIVANSPNKRLDVIDGKLPFMQNAGEGHHHHHH | soluble
17 | MSLRKVVILTLVTLFTCVEYSQAQTTEKEMTRQEKKAAQEALDKMLFQEAKEAIDNQTFVLEADRVYFKYGTSAFVSSNTNFVGLDGDKAVVQVAFNVPFSGPNGLGGITVDGNASNYKVKTDKKGNIHVSMNVMGIGISAQVNIDIPYGSNNATVDILPNFNSSHMTLSGQILPLKKANVFKGRSLEGHHHHHH | soluble
